Measured values as given in paper PMC7697625 (Biomolecules, 2020).

Molecular target: the molecule itself
Experiment: AUC; sedimentation velocity, 20 uM (0.25 mg/mL), 20 mM sodium phosphate pH 8.0, 200 mM NaCl, 20 C, 50,000 RPM; monomer and dimer

B1: TNIP1 AHD1-UBAN construct (TNIP1^417-509) (domain or fragment, human, UniProt Q15025 417-509, looked up)
chain: QRLNKALEEALSIQTPPSSPPTAFGSPEGAGALLRKQELVTQNELLKQQVKIFEEDFQRERSDRERMNEEKEELKKQVEKLQAQVTLSNAQLK
notes: pET28a construct; For NMR the protein was 15N-labelled (minimal medium with 15NH4Cl); also called TNIP1 AHD1-UBAN region; AHD1-UBAN domain; source: E. coli BL-21(DE3) Rosetta 2, heat lysis, purified (HisTrap HP, Superdex 75); not shown: His6, C-terminal, kept
stoichiometry N: 2
